Data from patent US6506881B1, “Anti-HMFG antibodies and processes for their production” (Celltech R&D Limited, priority 1991, dated 2003).
Positions count from the first letter of the chain named.

Tests used:
[1] = tested on: polymorphic epithelial mucin (PEM); experiment: Direct binding ELISA on PEM-coated microwell plates, transiently expressed antibodies; design: species or system human; details: from all direct binding assays (FIG. 22, 23)
Method: Direct binding ELISA assays for determining the binding activity of the transiently expressed antibodies were carried out as follows.
An affinity column was prepared by attaching the CTM01 MAb to a suitable chromatographic medium in conventional manner. In a first method, pooled human urine samples were applied directly to the affinity column. In a second method, human milk was subjected to low speed centrifugation to separate the cream from skimmed milk. The skimmed milk was then subjected to high speed centrifugation to produce an aqueous and a lipid component. The aqueous component was applied to the affinity column.
Once the affinity column was loaded, by either of the two methods, column fractions were eluted at high and low pHs, neutralised and assayed for reactivity with the CTM01 MAb. Fractions showing reactivity were pooled and dialysed.
Microwell plates were coated with PEM obtained as described above. The microwells were then incubated with serial dilutions of culture supernatants.
Direct binding assays were carried out on the culture supernatants produced by the doubly transfected cell lines.

[2] = tested on: MX-1 breast carcinoma cells; experiment: In vitro cell binding and internalisation of 125I-labelled antibody, MX-1; type: cell-based; details: MX-1 cells; 125I-labelled antibody at 2 μg/million cells; continuous exposure
Method: (§1) Antibody, purified from the supernatant of each cultured cell line by protein-A sepharose chromatography was radiolabelled (^125I) and incubated using a conventional continuous exposure method with either MX-1 or MCF-7 breast carcinoma cells. Radiolabelled murine CTMO1 was used in all tests as a comparison. All antibodies were incubated at 2 μg/million cells. The total binding of antibodies to the cells and the peak net uptake of the antibodies by the cells was determined.

[3] = tested on: MCF-7 breast carcinoma cells; experiment: In vitro cell binding and internalisation of 125I-labelled antibody, MCF-7; type: cell-based; details: MCF-7 cells; 125I-labelled antibody at 2 μg/million cells; continuous exposure
Method: as §1

B1: gL1gH2: CDR-grafted light chain gL1 with CDR-grafted heavy chain gH2, transiently expressed (antibody, V domains shown)
VH: QIQLVQSGAEVKKPGSSVKVSCKASGYTFTDYYINWMRQAPGQGLEWIGWIDPGSGNTKYNEKFKGRATLTVDTSTNTAYMELSSLRSEDTAFYFCAREKTTYYYAMDYWGQGTLVTVSS
VL: DIQMTQSPSTLSASVGDRVTITCRSSKSLLHSNGDTFLYWFQQKPGKAPKLLMYRMSNLASGVPSRFSGSGSGTEFTLTISSLQPDDFATYYCMQHLEYPFTFGQGTKVEVKR
order of binding activity of antibodies produced by transient expression [1]: cLcH3>gL1ch=gL1gH2>cLgH2=gL2H2=gL1gH1=gL2cH>gL2gH1

B2: hu1:CTMO1: CDR-grafted humanised CTMO1, gL1 light chain, gH2 heavy chain, human IgG2 constant domains, from NSO cells (antibody, V domains shown)
VH: B1 VH
VL: B1 VL
Peak Net Uptake (molecules/cell) [2]: 150,000 molecules/cell | Total Binding, 0° (molecules/cell) [2]: 1,200,000 molecules/cell | Peak Net Uptake (molecules/cell) [3]: 150,000 molecules/cell | Total Binding, 0° (molecules/cell) [3]: 650,000 molecules/cell

B3: gL1gH1: CDR-grafted light chain gL1 with CDR-grafted heavy chain gH1 (antibody, V domains shown)
VH: B1 VH with I48M, A68V, L70I
VL: B1 VL
order of binding activity of antibodies produced by transient expression [1]: cLcH3>gL1ch=gL1gH2>cLgH2=gL2H2=gL1gH1=gL2cH>gL2gH1

B4: hu:CTMO1: CDR-grafted humanised CTMO1, gL1 light chain, gH2 heavy chain, altered human IgG4 (IgG4P) constant domains (antibody, V domains shown)
VH: B1 VH
VL: B1 VL
Peak Net Uptake (molecules/cell) [2]: 150,000 molecules/cell | Total Binding, 0° (molecules/cell) [2]: 1,100,000 molecules/cell | Peak Net Uptake (molecules/cell) [3]: 90,000 molecules/cell | Total Binding, 0° (molecules/cell) [3]: 450,000 molecules/cell
